Assay [1] concerns the target T1, recombinant human LPHN2 lectin-olfactomedin-like domain, residues F26-P394 (human, UniProt O95490 26-394).
T1 chain: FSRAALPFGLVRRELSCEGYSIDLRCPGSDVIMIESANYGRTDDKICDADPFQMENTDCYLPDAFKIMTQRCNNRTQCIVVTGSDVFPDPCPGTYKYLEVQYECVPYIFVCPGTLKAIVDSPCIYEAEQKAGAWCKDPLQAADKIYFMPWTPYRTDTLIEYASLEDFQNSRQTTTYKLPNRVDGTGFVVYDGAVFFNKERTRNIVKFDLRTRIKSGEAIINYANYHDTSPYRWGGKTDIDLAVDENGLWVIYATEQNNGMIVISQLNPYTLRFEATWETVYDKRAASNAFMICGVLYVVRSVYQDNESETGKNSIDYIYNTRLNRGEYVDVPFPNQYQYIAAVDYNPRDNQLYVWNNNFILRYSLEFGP
Briefly: solid-phase binding (ELISA). For orientation: An ELISA detects its analyte on a solid surface through an enzyme-linked reagent.

A further assay concerns the target LPHN2 Lec. As to the kind of experiment: solid-phase binding (ELISA).

B1: deglycosylated LRG1 (LRG1 treated with PNGase F) (ligand)
chain: VTLSPKDCQVFRSDHGSSISCQPPAEIPGYLPADTVHLAVEFFNLTHLPANLLQGASKLQELHLSSNGLESLSPEFLRPVPQLRVLDLTRNALTGLPPGLFQASATLDTLVLKENQLEVLEVSWLHGLKALGHLDLSGNRLRKLPPGLLANFTLLRTLDLGENQLETLPPDLLRGPLQLERLHLEGNKLQVLGKDLLLPQPDLRYLFLNGNKLARVAAGAFQGLRQLDMLDLSNNSLASVPEGLWASLGQPNWDMRDGFDISGNPWICDQNLSDLYRWLQAQKDKMFSQNDTRCAGPEAVKGQTLLAVAKSQ
modifications: N-linked glycans removed with PNGase F (sites N79, N186, N269, N325 on SEQ ID NO: 1)
What is called Kd is the equilibrium constant for the complex coming apart. For the molecule B1, the Kd in assay [1] came out at 430 nM.

B2: recombinant human LRG1 (leucine-rich alpha-2 glycoprotein 1), residues V36-Q347, untagged, glycosylated (ligand)
chain: B1 chain
modifications: glycosyl groups at T37 (O-linked), N79, N186, N269 and N325 (N-linked), numbered on SEQ ID NO: 1
As to B2, the equilibrium dissociation constant (Kd) in assay [1] came out at 890 nM.

B3: DG-LRG1 (ligand)
chain: B1 chain
modifications: N-linked glycans removed with PNGase F (sites N79, N186, N269, N325 on SEQ ID NO: 1)
The molecule B3 had a Kd with LPHN2 Lec of 1100 nM.

The record behind these values is patent US20240083959A1 (published 2024).
